These are literature values, as cited in article PMC8707981.

The target in data set [1] is Spike protein RBD (SARS-CoV-2) (UniProt P0DTC2).
Data set [2] shares this target. This is another data set of the same source.

pKd: −log10 of the molar value. Like-named read-outs stand apart in the source and are kept apart here.

As to Casirivimab, the pKd in data set [1] was 10.34. For Imdevimab, the pKd in data set [2] is 10.33.

As a reminder, the pKd is −log10 of the Kd, conventionally taken in molar units.
